Experimental findings from patent US20140087995A1 (published 2014) are described below.

Numbered stars: 1 amine (or outer) side, 2 acyl side, 3 side chain; on linkers, the order of the positions; unused ones are H or OH. Bridge positions count the residues as written; N and C are the ends. Side chains are listed from the residue outwards. Ends that are not written are not given here. * marks the point of attachment. C20 diacid = O=C(O)CCCCCCCCCCCCCCCCCCC(=O)*; γGlu = O=C(O)[C@H](CCC(=O)[*:2])N[*:1]; AEEA = NCCOCCOCC(=O)O

T1: human calcitonin receptor (human, UniProt P30988 25-474)
T1 sequence (looked up): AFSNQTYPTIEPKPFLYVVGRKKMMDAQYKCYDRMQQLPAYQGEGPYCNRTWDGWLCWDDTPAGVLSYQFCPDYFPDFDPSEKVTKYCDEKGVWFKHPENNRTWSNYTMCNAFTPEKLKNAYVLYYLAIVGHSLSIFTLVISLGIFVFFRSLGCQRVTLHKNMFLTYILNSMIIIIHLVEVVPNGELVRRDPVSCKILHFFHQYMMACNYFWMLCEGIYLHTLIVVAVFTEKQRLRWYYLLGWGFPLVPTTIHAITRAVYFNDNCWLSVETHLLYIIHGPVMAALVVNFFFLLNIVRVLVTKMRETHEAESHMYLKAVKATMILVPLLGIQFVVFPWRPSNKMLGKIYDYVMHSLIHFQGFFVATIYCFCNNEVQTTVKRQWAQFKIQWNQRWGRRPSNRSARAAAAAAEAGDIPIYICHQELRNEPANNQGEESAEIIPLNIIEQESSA

B1: N^ε1-[2-[2-[2-[[(4S)-4-carboxy-4-(19-carboxynonadecanoylamino)butanoyl]amino]ethoxy]ethoxy]acetyl]-[Arg17,Pro21,Pro27,Pro34,His35]-h-amylin (peptide)
peptide: K([AEEA-γGlu-C20 diacid])CNTATCATQRLANFLRHSSPNFGAIPSSTNVGPHTY-NH2
modifications: disulfide 2-7; N-terminus assumed
SMILES: CC[C@H](C)[C@H](NC(=O)[C@H](C)NC(=O)CNC(=O)[C@H](Cc1ccccc1)NC(=O)[C@H](CC(N)=O)NC(=O)[C@@H]1CCCN1C(=O)[C@H](CO)NC(=O)[C@H](CO)NC(=O)[C@H](Cc1c[nH]cn1)NC(=O)[C@H](CCCNC(=N)N)NC(=O)[C@H](CC(C)C)NC(=O)[C@H](Cc1ccccc1)NC(=O)[C@H](CC(N)=O)NC(=O)[C@H](C)NC(=O)[C@H](CC(C)C)NC(=O)[C@H](CCCNC(=N)N)NC(=O)[C@H](CCC(N)=O)NC(=O)[C@@H](NC(=O)[C@H](C)NC(=O)[C@@H]1CSSC[C@H](NC(=O)[C@@H](N)CCCCNC(=O)COCCOCCNC(=O)CC[C@H](NC(=O)CCCCCCCCCCCCCCCCCCC(=O)O)C(=O)O)C(=O)N[C@@H](CC(N)=O)C(=O)N[C@@H]([C@@H](C)O)C(=O)N[C@@H](C)C(=O)N[C@@H]([C@@H](C)O)C(=O)N1)[C@@H](C)O)C(=O)N1CCC[C@H]1C(=O)N[C@@H](CO)C(=O)N[C@@H](CO)C(=O)N[C@H](C(=O)N[C@@H](CC(N)=O)C(=O)N[C@H](C(=O)NCC(=O)N1CCC[C@H]1C(=O)N[C@@H](Cc1c[nH]cn1)C(=O)N[C@H](C(=O)N[C@@H](Cc1ccc(O)cc1)C(N)=O)[C@@H](C)O)C(C)C)[C@@H](C)O
notes: analogue of human amylin; also called compound 58
B2: N^ε1-[2-[2-[2-[[(4S)-4-carboxy-4-(19-carboxynonadecanoylamino)butanoyl]amino]ethoxy]ethoxy]acetyl]-[Arg17,Pro21,Pro27,Pro34]-h-amylin (peptide)
peptide: K([AEEA-γGlu-C20 diacid])CNTATCATQRLANFLRHSSPNFGAIPSSTNVGPNTY-NH2
modifications: disulfide 2-7; N-terminus assumed
SMILES: CC[C@H](C)[C@H](NC(=O)[C@H](C)NC(=O)CNC(=O)[C@H](Cc1ccccc1)NC(=O)[C@H](CC(N)=O)NC(=O)[C@@H]1CCCN1C(=O)[C@H](CO)NC(=O)[C@H](CO)NC(=O)[C@H](Cc1c[nH]cn1)NC(=O)[C@H](CCCNC(=N)N)NC(=O)[C@H](CC(C)C)NC(=O)[C@H](Cc1ccccc1)NC(=O)[C@H](CC(N)=O)NC(=O)[C@H](C)NC(=O)[C@H](CC(C)C)NC(=O)[C@H](CCCNC(=N)N)NC(=O)[C@H](CCC(N)=O)NC(=O)[C@@H](NC(=O)[C@H](C)NC(=O)[C@@H]1CSSC[C@H](NC(=O)[C@@H](N)CCCCNC(=O)COCCOCCNC(=O)CC[C@H](NC(=O)CCCCCCCCCCCCCCCCCCC(=O)O)C(=O)O)C(=O)N[C@@H](CC(N)=O)C(=O)N[C@@H]([C@@H](C)O)C(=O)N[C@@H](C)C(=O)N[C@@H]([C@@H](C)O)C(=O)N1)[C@@H](C)O)C(=O)N1CCC[C@H]1C(=O)N[C@@H](CO)C(=O)N[C@@H](CO)C(=O)N[C@H](C(=O)N[C@@H](CC(N)=O)C(=O)N[C@H](C(=O)NCC(=O)N1CCC[C@H]1C(=O)N[C@@H](CC(N)=O)C(=O)N[C@H](C(=O)N[C@@H](Cc1ccc(O)cc1)C(N)=O)[C@@H](C)O)C(C)C)[C@@H](C)O
notes: analogue of human amylin; also called compound 50
B3: N^ε1-[2-[2-[2-[[(4S)-4-carboxy-4-(19-carboxynonadecanoylamino)butanoyl]amino]ethoxy]ethoxy]acetyl]-[His14,Arg17,Pro21,Pro27,Pro34]-h-amylin (peptide)
peptide: K([AEEA-γGlu-C20 diacid])CNTATCATQRLAHFLRHSSPNFGAIPSSTNVGPNTY-NH2
modifications: disulfide 2-7; N-terminus assumed
SMILES: CC[C@H](C)[C@H](NC(=O)[C@H](C)NC(=O)CNC(=O)[C@H](Cc1ccccc1)NC(=O)[C@H](CC(N)=O)NC(=O)[C@@H]1CCCN1C(=O)[C@H](CO)NC(=O)[C@H](CO)NC(=O)[C@H](Cc1c[nH]cn1)NC(=O)[C@H](CCCNC(=N)N)NC(=O)[C@H](CC(C)C)NC(=O)[C@H](Cc1ccccc1)NC(=O)[C@H](Cc1c[nH]cn1)NC(=O)[C@H](C)NC(=O)[C@H](CC(C)C)NC(=O)[C@H](CCCNC(=N)N)NC(=O)[C@H](CCC(N)=O)NC(=O)[C@@H](NC(=O)[C@H](C)NC(=O)[C@@H]1CSSC[C@H](NC(=O)[C@@H](N)CCCCNC(=O)COCCOCCNC(=O)CC[C@H](NC(=O)CCCCCCCCCCCCCCCCCCC(=O)O)C(=O)O)C(=O)N[C@@H](CC(N)=O)C(=O)N[C@@H]([C@@H](C)O)C(=O)N[C@@H](C)C(=O)N[C@@H]([C@@H](C)O)C(=O)N1)[C@@H](C)O)C(=O)N1CCC[C@H]1C(=O)N[C@@H](CO)C(=O)N[C@@H](CO)C(=O)N[C@H](C(=O)N[C@@H](CC(N)=O)C(=O)N[C@H](C(=O)NCC(=O)N1CCC[C@H]1C(=O)N[C@@H](CC(N)=O)C(=O)N[C@H](C(=O)N[C@@H](Cc1ccc(O)cc1)C(N)=O)[C@@H](C)O)C(C)C)[C@@H](C)O
notes: analogue of human amylin; also called compound 68
B4: N^ε1-[2-[2-[2-[[(4S)-4-carboxy-4-(19-carboxynonadecanoylamino)butanoyl]amino]ethoxy]ethoxy]acetyl]-[Lys14,Arg17,Pro21,Pro27,Pro31]-h-amylin (peptide)
peptide: K([AEEA-γGlu-C20 diacid])CNTATCATQRLAKFLRHSSPNFGAIPSSTPVGSNTY-NH2
modifications: disulfide 2-7; N-terminus assumed
SMILES: CC[C@H](C)[C@H](NC(=O)[C@H](C)NC(=O)CNC(=O)[C@H](Cc1ccccc1)NC(=O)[C@H](CC(N)=O)NC(=O)[C@@H]1CCCN1C(=O)[C@H](CO)NC(=O)[C@H](CO)NC(=O)[C@H](Cc1c[nH]cn1)NC(=O)[C@H](CCCNC(=N)N)NC(=O)[C@H](CC(C)C)NC(=O)[C@H](Cc1ccccc1)NC(=O)[C@H](CCCCN)NC(=O)[C@H](C)NC(=O)[C@H](CC(C)C)NC(=O)[C@H](CCCNC(=N)N)NC(=O)[C@H](CCC(N)=O)NC(=O)[C@@H](NC(=O)[C@H](C)NC(=O)[C@@H]1CSSC[C@H](NC(=O)[C@@H](N)CCCCNC(=O)COCCOCCNC(=O)CC[C@H](NC(=O)CCCCCCCCCCCCCCCCCCC(=O)O)C(=O)O)C(=O)N[C@@H](CC(N)=O)C(=O)N[C@@H]([C@@H](C)O)C(=O)N[C@@H](C)C(=O)N[C@@H]([C@@H](C)O)C(=O)N1)[C@@H](C)O)C(=O)N1CCC[C@H]1C(=O)N[C@@H](CO)C(=O)N[C@@H](CO)C(=O)N[C@H](C(=O)N1CCC[C@H]1C(=O)N[C@H](C(=O)NCC(=O)N[C@@H](CO)C(=O)N[C@@H](CC(N)=O)C(=O)N[C@H](C(=O)N[C@@H](Cc1ccc(O)cc1)C(N)=O)[C@@H](C)O)C(C)C)[C@@H](C)O
notes: analogue of human amylin; also called compound 74
B5: N^ε1-[2-[2-[2-[[(4S)-4-carboxy-4-(19-carboxynonadecanoylamino)butanoyl]amino]ethoxy]ethoxy]acetyl]-[His14,Arg17,Pro21,Pro27]-h-amylin (peptide)
peptide: K([AEEA-γGlu-C20 diacid])CNTATCATQRLAHFLRHSSPNFGAIPSSTNVGSNTY-NH2
modifications: disulfide 2-7; N-terminus assumed
SMILES: CC[C@H](C)[C@H](NC(=O)[C@H](C)NC(=O)CNC(=O)[C@H](Cc1ccccc1)NC(=O)[C@H](CC(N)=O)NC(=O)[C@@H]1CCCN1C(=O)[C@H](CO)NC(=O)[C@H](CO)NC(=O)[C@H](Cc1c[nH]cn1)NC(=O)[C@H](CCCNC(=N)N)NC(=O)[C@H](CC(C)C)NC(=O)[C@H](Cc1ccccc1)NC(=O)[C@H](Cc1c[nH]cn1)NC(=O)[C@H](C)NC(=O)[C@H](CC(C)C)NC(=O)[C@H](CCCNC(=N)N)NC(=O)[C@H](CCC(N)=O)NC(=O)[C@@H](NC(=O)[C@H](C)NC(=O)[C@@H]1CSSC[C@H](NC(=O)[C@@H](N)CCCCNC(=O)COCCOCCNC(=O)CC[C@H](NC(=O)CCCCCCCCCCCCCCCCCCC(=O)O)C(=O)O)C(=O)N[C@@H](CC(N)=O)C(=O)N[C@@H]([C@@H](C)O)C(=O)N[C@@H](C)C(=O)N[C@@H]([C@@H](C)O)C(=O)N1)[C@@H](C)O)C(=O)N1CCC[C@H]1C(=O)N[C@@H](CO)C(=O)N[C@@H](CO)C(=O)N[C@H](C(=O)N[C@@H](CC(N)=O)C(=O)N[C@H](C(=O)NCC(=O)N[C@@H](CO)C(=O)N[C@@H](CC(N)=O)C(=O)N[C@H](C(=O)N[C@@H](Cc1ccc(O)cc1)C(N)=O)[C@@H](C)O)C(C)C)[C@@H](C)O
notes: analogue of human amylin; also called compound 69
B6: N^ε1-[2-[2-[2-[[(4S)-4-carboxy-4-(19-carboxynonadecanoylamino)butanoyl]amino]ethoxy]ethoxy]acetyl]-[His14,Arg17,Pro21,Pro27,Pro31]-h-amylin (peptide)
peptide: K([AEEA-γGlu-C20 diacid])CNTATCATQRLAHFLRHSSPNFGAIPSSTPVGSNTY-NH2
modifications: disulfide 2-7; N-terminus assumed
SMILES: CC[C@H](C)[C@H](NC(=O)[C@H](C)NC(=O)CNC(=O)[C@H](Cc1ccccc1)NC(=O)[C@H](CC(N)=O)NC(=O)[C@@H]1CCCN1C(=O)[C@H](CO)NC(=O)[C@H](CO)NC(=O)[C@H](Cc1c[nH]cn1)NC(=O)[C@H](CCCNC(=N)N)NC(=O)[C@H](CC(C)C)NC(=O)[C@H](Cc1ccccc1)NC(=O)[C@H](Cc1c[nH]cn1)NC(=O)[C@H](C)NC(=O)[C@H](CC(C)C)NC(=O)[C@H](CCCNC(=N)N)NC(=O)[C@H](CCC(N)=O)NC(=O)[C@@H](NC(=O)[C@H](C)NC(=O)[C@@H]1CSSC[C@H](NC(=O)[C@@H](N)CCCCNC(=O)COCCOCCNC(=O)CC[C@H](NC(=O)CCCCCCCCCCCCCCCCCCC(=O)O)C(=O)O)C(=O)N[C@@H](CC(N)=O)C(=O)N[C@@H]([C@@H](C)O)C(=O)N[C@@H](C)C(=O)N[C@@H]([C@@H](C)O)C(=O)N1)[C@@H](C)O)C(=O)N1CCC[C@H]1C(=O)N[C@@H](CO)C(=O)N[C@@H](CO)C(=O)N[C@H](C(=O)N1CCC[C@H]1C(=O)N[C@H](C(=O)NCC(=O)N[C@@H](CO)C(=O)N[C@@H](CC(N)=O)C(=O)N[C@H](C(=O)N[C@@H](Cc1ccc(O)cc1)C(N)=O)[C@@H](C)O)C(C)C)[C@@H](C)O
notes: analogue of human amylin; also called compound 61

The assay addresses T1, human calcitonin receptor. Kind of assay: cell-based or functional assay.
As for B1, the “hCTR funct. EC50” value came out at 1.03 nM.
Consider B2, for which the “hCTR funct. EC50” value turned out to be 0.662 nM.
Turning to B3, the “hCTR funct. EC50” value stood at 0.932 nM.
B4: the “hCTR funct. EC50” value was 37.5 nM.
As for B5, the “hCTR funct. EC50” value came to 1.25 nM.
As to B6, the “hCTR funct. EC50” value worked out at 0.554 nM.
